B1: ZNF263 (parent)
chain: CSECGESFSRSSRLMSHQRTHTG
B2: ETS1 (parent)
chain: FSEPSFITESYQTLHPISSEELLS

Variants of: B1
Test: protein stability index of a GFP-peptide fusion (GPS, HEK-293T) (PSI 1-6); higher = more stable
Conditions: c terminus: native
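Note: lentivirally expressed fusions sorted by FACS into six bins by GFP to DsRed ratio, PSI derived from sequencing read proportions per bin multiplied by bin number.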

Protein stability index of substitutions, site by site:
E6: K 3.25 | L 3.22 | M 3.42 | N 1.73 | P 1.92 | Q 2.96 | R 3.9 | S 2.94 | T 1.76 | V 2.97 | W 2.02 | Y 1.56
S7: A 2.94 | C 2.67 | D 1.84 | E 3.51 | G 2.35 | H 2.58 | I 3.88 | K 2.72 | L 3.6 | M 3.59 | N 2.64 | P 2.63 | Q 3.41 | R 2.33 | T 3.69 | V 4.13 | W 3.75 | Y 3.8
F8: A 1.35 | C 2 | D 2.63 | E 3.32 | G 2.58 | H 2.13 | I 1.21 | K 2.14 | L 1.37 | M 2.21 | N 1.92 | P 1.91 | Q 2.16 | R 2.2 | S 2.11 | T 2.04 | W 3.15 | Y 2.39
S9: A 2.54 | C 2.35 | D 4.09 | E 3.67 | F 2.58 | G 2.23 | H 2.99 | I 2.4 | K 2.23 | L 2.03 | M 2.68 | N 2.67 | P 1.74 | Q 1.94 | R 2.37 | T 2.98 | V 2.42 | W 2.84 | Y 3.1
R10: A 2.98 | C 4.11 | D 5.6 | E 5.27 | F 2.51 | G 2.95 | H 4.29 | I 2.95 | K 2.68 | L 3.71 | M 3.62 | N 4.99 | P 2 | Q 3.85 | S 5.28 | T 5.16 | V 3.48 | W 1.15 | Y 2.83
S11: A 4.04 | C 3.34 | D 2.1 | F 3.14 | G 3.13 | H 3.47 | I 3.98 | K 3.55 | M 4.29 | N 2.31 | P 4.22 | R 2.31 | T 2.54 | V 4.71 | Y 3.67
S12: A 2.13 | C 3.76 | D 4.42 | F 1.86 | G 1.91 | H 2.66 | I 2.4 | K 1.99 | L 2.01 | M 2.58 | N 2.52 | P 2.06 | Q 2.38 | R 2.23 | T 1.72 | V 1.86 | W 2.13 | Y 2.65
R13: A 4.91 | C 4.52 | D 5.63 | E 5.6 | F 3.48 | G 3.3 | H 4.79 | I 3.96 | K 4.19 | L 4.84 | M 4.03 | N 4.26 | P 2.43 | Q 4.66 | S 4.84 | T 4.34 | V 4.14 | W 2.56 | Y 3.6
L14: A 2.39 | D 2.74 | E 2.35 | F 2.43 | G 1.62 | H 1.55 | M 1.87 | N 2.12 | P 1.67 | Q 1.32 | T 2.05 | V 1.45 | W 1.96 | Y 2.98
M15: A 3.54 | C 2.75 | D 3.48 | E 3.72 | F 3.2 | G 1.98 | H 3.24 | I 3.54 | K 3.97 | L 3.13 | N 2.22 | P 1.72 | Q 3.51 | R 3.03 | S 2.19 | T 2.54 | V 2.54 | W 1.85 | Y 2.83
S16: A 3.8 | C 3.1 | D 4.8 | E 4.89 | F 2.28 | H 2.64 | I 2.88 | L 3.83 | M 4.14 | N 2.14 | R 3.69 | T 3.34 | V 3.49 | W 1.83 | Y 1.93
H17: A 1.44 | C 2.42 | D 2.52 | E 2.38 | F 2.73 | I 3.2 | K 2.76 | L 1.38 | N 1.57 | P 1.11 | Q 2.04 | S 1.51 | T 1.46 | W 3.17 | Y 1.76
Q18: A 2.48 | C 2.5 | D 2.58 | E 2.76 | F 2.38 | G 2.49 | H 2.57 | I 3.21 | K 2.22 | L 3.02 | M 4.32 | N 2.16 | P 2.22 | R 1.89 | S 2.13 | T 2.24 | W 2.77 | Y 2.39
R19: A 4.1 | C 5 | D 4.39 | E 3.78 | F 3.55 | H 4.51 | I 2.58 | K 5.13 | L 3.49 | M 3.43 | N 4.11 | P 2.44 | Q 3.63 | S 3.46 | T 3.76 | V 2.73 | W 3.17 | Y 3.63
T20: A 3.7 | C 2.35 | D 3.75 | E 2.45 | F 2.48 | G 2.96 | H 3.72 | I 4.43 | K 3.72 | L 3.21 | M 1.95 | N 1.93 | Q 3.26 | S 2.44 | V 2.9 | W 1.92 | Y 2.08
H21: C 2.72 | D 3.31 | E 2.15 | F 2.47 | G 3.01 | K 1.78 | L 2.52 | M 1.45 | N 2.4 | S 2.74 | T 1.6 | W 1.87 | Y 2.64
T22: A 2.03 | C 2.08 | D 4.27 | E 3.76 | F 3.75 | I 2.95 | L 4.2 | M 3.83 | N 2.29 | Q 2.43 | S 2.23 | V 3.03 | W 2.25 | Y 2.25
G23: A 2.97 | C 3.33 | E 4.44 | F 3.74 | H 3.59 | I 4.41 | K 4.89 | L 4.69 | M 4.34 | N 4.85 | P 4.52 | Q 4.16 | R 4.2 | S 4 | T 4.04 | V 3.56 | W 3.79 | Y 3.29

Variants of: B2
Test: as above
Conditions: c terminus: a fixed tail appended

Protein stability index of substitutions, site by site:
L22: T 1.97 | K 2.55 | R 2.19
E9: L 1.5 | F 2.58
F1: H 4.1
Q12: Y 1.56 | S 1.88 | W 2.42 | L 2.45
E20: P 1.73
S5: H 1.58 | T 2.1 | D 2.51 | P 2.66
S18: C 2.2 | L 1.99
S2: N 3.37 | A 2.42 | H 2.46
L14: Y 1.55 | E 2.33
F6: L 3.22 | R 4.13
L23: K 2.83 | N 2.31
E3: V 2.5
P4: S 2.39 | M 2.19 | K 2.45 | Y 2.2
I7: W 2.33 | T 3.29
T13: G 1.9
S24: W 1.56
